Results taken from US20100055121A1 (US Dept. of Health and Human Services, published 2010).
One block for each binder: values may come before it.

How the values were obtained:
[1] = target: T1, HLA-A0201 molecules on T2 (HLA-A2+) cells (human); assay: T2 cells loaded with 25 µM peptide, brefeldin A chase, HLA-A02 flow cytometry over time
T1 construct: whole, on cells; MHC class I molecule on T2 cells; also called HLA-A2.1
Protocol: (§1) HLA-A2 binding assay. […] T2 cells (1×10⁶) in serum-free Iscove's modified Dulbecco's medium were incubated in the presence of various concentrations of each peptide, in 24-well culture plates at 37° C. with 5% CO₂. After 18 hours in culture, T2 cells were harvested, washed with 1× phosphate buffered saline (PBS) (Invitrogen) and stained with 20 μl of a FITC-conjugated anti-HLA-A02-specific monoclonal antibody (MAb) (One Lambda, Inc., Canoga Park, Calif.). A FITC-conjugated IgG2a MAb (BD Biosciences, San Jose, Calif.) was used as an isotype control. Data acquisition and analysis were conducted on a FACSCalibur™ system using the CELLQueSt™ software (BD Biosciences). Results were expressed as mean fluorescence intensity (MFI) collected on a log scale. […] Assuming first order kinetics, the log₂ of MFI/MFI₀ (MFI is the fluorescence at each time point and MFI₀ the initial fluorescence at time 0) was plotted against time (minutes). The decay rate constant was calculated as the slope of the linear regression for each curve and the half-life of each peptide-MHC complex was calculated as […].
In silico-predicted epitopes were then assessed for binding to the MHC molecules in a cell-based assay. TAP-deficient T2 (HLA-A2+) cells were incubated in the presence of 25 μM of each peptide and subsequently tested for cell surface MHC-stabilization by bound peptides.

[2] = target: T1, HLA-A0201 molecules on T2 (HLA-A2+) …; assay: T2 cell surface HLA-A02 stabilisation, flow cytometry, 25 µM peptide
Protocol: as §1
In silico-predicted epitopes were then assessed for binding to the MHC molecules in a cell-based assay. […]

half-life of MHC-peptide complex [1]: 5.2 h
B1: Brachyury peptide T-p4 (peptide)
peptide: AMYSFLLDFV
notes: Synthesized at >90% purity

binding result [2]: binds
B2: Brachyury peptide T-p1 (peptide)
peptide: SQYPSLWSV

half-life of MHC-peptide complex [1]: 3.75 h
B3: Brachyury peptide T-p3 (peptide)
peptide: RLIASWTPV
notes: Synthesized at >90% purity

half-life of MHC-peptide complex [1]: 8.57 h
B4: Brachyury peptide T-p2 (peptide)
peptide: WLLPGTSTL
notes: Synthesized at >90% purity
